In the supplement of paper PMC10567573 one finds protein stability index data, which are given here for 94 variants.

Sequences and labels used below:
B1: BRF1 (parent)
chain: FVESSGGGSSAVGQFVSLDGAGKT
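Also: lentivirally expressed fusions sorted by FACS into six bins by GFP to DsRed ratio, PSI derived from sequencing read proportions per bin multiplied by bin number.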

This data set covers variants of B1. Kind of data set: protein stability index of a GFP-peptide fusion (GPS, HEK-293T) (PSI 1-6); higher = more stable. The note with it: c terminus: a fixed tail appended.
In the case of FVESSGGGSSAVGQFVSLDYAGKT, the protein stability index is 1.6.
With FVESSGGGSSAVGQFVSLDQAGKT the figure was 3.03; with FVESSGGGSSAVGQFVSLDTAGKT, 2.21.
Consider FVESSGGGSSAVGQFVSLDIAGKT, for which the protein stability index is 2.16.
With FVESSGGGSSAVGQFVSLDSAGKT the figure was 1.75; with FVESSGGGSSAVGQFVSLDMAGKT, 1.76; with FVESSGGGSSAVGQFVSLDLAGKT, 2.58.
For FVESSGGGSSAVGQFVSLDPAGKT, the protein stability index came out at 2.13.
Regarding FVESSGGGSSAVGQFVSLDNAGKT, the protein stability index was 2.32.
With FVESSGGGSSAVGQFVSLDEAGKT the figure was 2.55; with FVESSGGGSSAVGQFVSLDDAGKT, 2.43; with FVESSGGGSSAVGQFVSLDKAGKT, 1.72.
With FVESSGGGSSAVGQFVSLDHAGKT the figure was 2.55.
For FVESSGGGSSAVGQFVSLDAAGKT, the protein stability index stood at 2.41.
With FVESSGGGSSAVGQFVSLDWAGKT the figure was 2.34.
Take FVESSGGGSSAVGQFVSLDVAGKT: the protein stability index amounted to 2.41.
With FVESSGGGSSAVGQFVSLDRAGKT the figure was 2.32; with FVESSGGGSSAVGQFVSLDCAGKT, 2.41; with FVESSGGGSSAVGQFVSLDFAGKT, 2.6.
As to FVESSGGGSSAVGQFVSLTGAGKT, the protein stability index turned out to be 1.59.
The same measure for FVESSGGGSSAVGQFVSLSGAGKT: 1.59; for FVESSGGGSSAVGQFVSLHGAGKT: 2.27; for FVESSGGGSSAVGQFVSLFGAGKT: 1.48.
For FVESSGGGSSAVGQFVSLNGAGKT, the protein stability index was 2.02.
FVESSGGGSSAVGQFVSLEGAGKT: the protein stability index is 2.56.
The same measure for FVESSGGGSSAVGQFVSLPGAGKT: 2.26; for FVESSGGGSSAVGQFVSLMGAGKT: 2.17.
The same measure for FVESSGGGSSAVGQFVSLVGAGKT: 1.12; for FVESSGGGSSAVGQFVSLGGAGKT: 1.69.
With FVESSGGGSSAVGQFVSLWGAGKT the figure was 3.02.
For FVESSGGGSSAVGQFVSLAGAGKT, the protein stability index amounted to 1.72.
With FVESSGGGSSAVGQFVSLCGAGKT the figure was 1.72.
With FVESSGGGSSAVGQFVSLQGAGKT the figure was 1.98.
With FVESSGGGSSAVGQFVSLKGAGKT the figure was 2.55.
On to FVESSGGGSSAFGQFVSLDGAGKT, for which the protein stability index came out at 2.01.
The same measure for FVESSGGGSSATGQFVSLDGAGKT: 1.86; for FVESSGGGSSARGQFVSLDGAGKT: 2.51; for FVESSGGGSSAMGQFVSLDGAGKT: 2.52.
For FVESSGGGSSACGQFVSLDGAGKT, the protein stability index turned out to be 2.37.
For the variant FVESSGGGSSAWGQFVSLDGAGKT, the protein stability index turned out to be 3.19.
FVESSGGGSSANGQFVSLDGAGKT: the protein stability index is 3.08.
The same measure for FVESSGGGSSAKGQFVSLDGAGKT: 2.88; for FVESSGGGSSAGGQFVSLDGAGKT: 2.37.
With FVESSGGGSSAYGQFVSLDGAGKT the figure was 1.29; with FVESSGGGSSAEGQFVSLDGAGKT, 2.87; with FVESSGGGSSAHGQFVSLDGAGKT, 2.25.
Regarding FVESSGGGSSAPGQFVSLDGAGKT, the protein stability index was 1.86.
Turning to FVESSGGGSSAAGQFVSLDGAGKT, the protein stability index was determined as 2.2.
Regarding FVESSGGGSSALGQFVSLDGAGKT, the protein stability index is 1.95.
With FVESSGGGSSAIGQFVSLDGAGKT, the protein stability index is 2.09.
Regarding FVESSGGGSSADGQFVSLDGAGKT, the protein stability index was 3.13.
The same measure for FVESSGGGSSASGQFVSLDGAGKT: 2.43.
The same measure for FVESSGGGSSSVGQFVSLDGAGKT: 1.95; for FVESSGGGSSMVGQFVSLDGAGKT: 1.63; for FVESSGGGSSTVGQFVSLDGAGKT: 2.06.
Turning to FVESSGGGSSRVGQFVSLDGAGKT, the protein stability index is 1.39.
With FVESSGGGSSKVGQFVSLDGAGKT the figure was 1.41; with FVESSGGGSSYVGQFVSLDGAGKT, 1.64; with FVESSGGGSSQVGQFVSLDGAGKT, 2.61.
With FVESSGGGSSIVGQFVSLDGAGKT the figure was 2.41; with FVESSGGGSSVVGQFVSLDGAGKT, 2.4.
The same measure for FVESSGGGSSLVGQFVSLDGAGKT: 1.77.
In the case of FVESSGGGSSPVGQFVSLDGAGKT, the protein stability index was determined as 2.42.
With FVESSGGGSSNVGQFVSLDGAGKT the figure was 2; with FVESSGGGSSAVFQFVSLDGAGKT, 4.42; with FVESSGGGSSAVKQFVSLDGAGKT, 2.06.
The same measure for FVESSGGGSSAVMQFVSLDGAGKT: 1.66; for FVESSGGGSSAVRQFVSLDGAGKT: 2.41.
The same measure for FVESSGGGSSAVLQFVSLDGAGKT: 2.05; for FVESSGGGSSAVTQFVSLDGAGKT: 2.3.
As for FVESSGGGSSAVEQFVSLDGAGKT, the protein stability index is 2.96.
For FVESSGGGSSAVWQFVSLDGAGKT, the protein stability index came to 1.49.
Regarding FVESSGGGSSAVNQFVSLDGAGKT, the protein stability index worked out at 1.81.
Consider FVESSGGGSSAVVQFVSLDGAGKT, for which the protein stability index is 2.25.
FVESSGGGSSAVQQFVSLDGAGKT: the protein stability index worked out at 1.93.
For the variant FVESSGGGSSAVIQFVSLDGAGKT, the protein stability index worked out at 1.02.
The same measure for FVESSGGGSSAVSQFVSLDGAGKT: 2.05; for FVESSGGGSSAVHQFVSLDGAGKT: 1.84; for FVESSGGGSSAVPQFVSLDGAGKT: 2.18.
The same measure for FVESSGGGSSAVDQFVSLDGAGKT: 3.3.
On to FVESSGGGSSAVCQFVSLDGAGKT, for which the protein stability index was 1.92.
With FVESSGGGSSAVGTFVSLDGAGKT the figure was 1.86.
With FVESSGGGSSAVGDFVSLDGAGKT, the protein stability index was 2.73.
Regarding FVESSGGGSSAVGLFVSLDGAGKT, the protein stability index was 1.04.
As for FVESSGGGSSAVGNFVSLDGAGKT, the protein stability index stood at 1.9.
The same measure for FVESSGGGSSAVGCFVSLDGAGKT: 1.96; for FVESSGGGSSAVGSFVSLDGAGKT: 1.78.
With FVESSGGGSSAVGHFVSLDGAGKT the figure was 1.68; with FVESSGGGSSAVGAFVSLDGAGKT, 1.73; with FVESSGGGSSAVGGFVSLDGAGKT, 2.06.
In the case of FVESSGGGSSAVGMFVSLDGAGKT, the protein stability index came to 3.29.
As to FVESSGGGSSAVGPFVSLDGAGKT, the protein stability index stood at 3.44.
For FVESSGGGSSAVGRFVSLDGAGKT, the protein stability index amounted to 1.39.
With FVESSGGGSSAVGKFVSLDGAGKT the figure was 1.72.
